# T1: G9a and GLP (Homo sapiens, UniProt Q96KQ7+Q9H9B1)
# T1 sequence (Q96KQ7 2-1210 limits assumed): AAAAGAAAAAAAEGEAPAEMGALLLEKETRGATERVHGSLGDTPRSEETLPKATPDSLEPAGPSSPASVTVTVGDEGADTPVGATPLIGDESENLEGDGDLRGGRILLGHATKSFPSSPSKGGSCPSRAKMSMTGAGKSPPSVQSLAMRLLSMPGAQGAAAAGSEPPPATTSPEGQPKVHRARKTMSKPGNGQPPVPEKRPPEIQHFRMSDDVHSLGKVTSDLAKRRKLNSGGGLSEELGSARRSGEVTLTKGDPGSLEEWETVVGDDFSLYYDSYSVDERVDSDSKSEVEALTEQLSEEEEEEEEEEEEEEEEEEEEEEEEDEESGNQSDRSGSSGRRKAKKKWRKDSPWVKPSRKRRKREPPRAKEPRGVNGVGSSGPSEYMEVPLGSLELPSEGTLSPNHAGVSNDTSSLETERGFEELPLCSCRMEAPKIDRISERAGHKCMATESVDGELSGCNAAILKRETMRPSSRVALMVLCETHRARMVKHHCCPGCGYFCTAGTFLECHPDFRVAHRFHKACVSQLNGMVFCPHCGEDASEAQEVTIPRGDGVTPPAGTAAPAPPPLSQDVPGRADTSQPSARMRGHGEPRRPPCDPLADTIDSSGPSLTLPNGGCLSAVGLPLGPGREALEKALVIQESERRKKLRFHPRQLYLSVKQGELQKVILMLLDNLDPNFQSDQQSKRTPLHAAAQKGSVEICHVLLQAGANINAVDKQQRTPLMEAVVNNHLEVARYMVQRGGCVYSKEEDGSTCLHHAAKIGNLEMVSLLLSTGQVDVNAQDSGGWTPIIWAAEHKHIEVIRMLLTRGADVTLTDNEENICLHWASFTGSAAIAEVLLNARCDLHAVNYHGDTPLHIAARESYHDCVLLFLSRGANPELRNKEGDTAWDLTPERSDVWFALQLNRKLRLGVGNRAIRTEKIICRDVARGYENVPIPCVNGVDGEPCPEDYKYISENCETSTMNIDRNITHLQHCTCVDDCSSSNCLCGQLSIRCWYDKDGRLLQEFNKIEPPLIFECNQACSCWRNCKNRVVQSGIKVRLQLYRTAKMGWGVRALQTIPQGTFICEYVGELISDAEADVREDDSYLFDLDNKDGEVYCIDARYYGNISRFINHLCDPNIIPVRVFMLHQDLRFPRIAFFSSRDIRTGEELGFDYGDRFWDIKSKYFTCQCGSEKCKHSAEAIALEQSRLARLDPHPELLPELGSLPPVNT
# T1 sequence (Q9H9B1 2-1298 limits assumed): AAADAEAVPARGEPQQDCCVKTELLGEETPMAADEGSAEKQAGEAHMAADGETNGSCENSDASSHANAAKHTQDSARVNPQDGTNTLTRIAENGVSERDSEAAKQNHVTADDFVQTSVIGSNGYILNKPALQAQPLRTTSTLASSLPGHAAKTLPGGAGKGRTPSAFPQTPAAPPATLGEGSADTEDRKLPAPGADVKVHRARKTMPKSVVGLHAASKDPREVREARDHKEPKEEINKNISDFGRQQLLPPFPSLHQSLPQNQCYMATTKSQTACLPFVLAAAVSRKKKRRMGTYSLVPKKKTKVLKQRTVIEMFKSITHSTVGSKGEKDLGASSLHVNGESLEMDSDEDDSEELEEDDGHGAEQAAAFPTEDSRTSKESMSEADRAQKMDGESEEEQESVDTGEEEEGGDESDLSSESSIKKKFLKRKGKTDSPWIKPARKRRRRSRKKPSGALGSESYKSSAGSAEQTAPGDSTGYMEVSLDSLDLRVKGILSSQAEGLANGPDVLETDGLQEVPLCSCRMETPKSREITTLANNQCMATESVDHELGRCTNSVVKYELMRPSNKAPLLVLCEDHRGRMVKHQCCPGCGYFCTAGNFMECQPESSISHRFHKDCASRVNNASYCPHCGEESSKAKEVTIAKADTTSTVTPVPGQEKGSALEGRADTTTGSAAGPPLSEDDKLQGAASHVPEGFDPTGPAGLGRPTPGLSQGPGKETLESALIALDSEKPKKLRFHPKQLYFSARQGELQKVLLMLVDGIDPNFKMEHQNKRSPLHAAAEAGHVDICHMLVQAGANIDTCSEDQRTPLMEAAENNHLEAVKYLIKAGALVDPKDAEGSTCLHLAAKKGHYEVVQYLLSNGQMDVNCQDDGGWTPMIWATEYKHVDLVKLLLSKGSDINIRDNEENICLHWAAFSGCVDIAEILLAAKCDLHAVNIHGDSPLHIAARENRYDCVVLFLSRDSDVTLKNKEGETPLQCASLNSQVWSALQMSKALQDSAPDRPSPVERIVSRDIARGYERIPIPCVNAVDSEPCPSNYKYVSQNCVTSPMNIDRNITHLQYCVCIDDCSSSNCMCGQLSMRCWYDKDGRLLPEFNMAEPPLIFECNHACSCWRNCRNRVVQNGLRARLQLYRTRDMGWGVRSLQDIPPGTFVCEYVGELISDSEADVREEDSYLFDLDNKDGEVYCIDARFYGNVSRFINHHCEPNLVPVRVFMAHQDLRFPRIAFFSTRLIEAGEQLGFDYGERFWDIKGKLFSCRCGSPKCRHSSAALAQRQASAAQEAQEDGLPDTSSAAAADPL
# B1: PRDX2 (protein, UniProt P32119 2-198, looked up)
# Peroxiredoxin-2: ASGNARIGKPAPDFKATAVVDGAFKEVKLSDYKGKYVVLFFYPLDFTFVCPTEIIAFSNRAEDFRKLGCEVLGVSVDSQFTHLAWINTPRKEGGLGPLNIPLLADVTRRLSEDYGVLKTDEGIAYRGLFIIDGKGVLRQITVNDLPVGRSVDEALRLVQAFQYTDEHGEVCPAGWKPGSDTIKPNVDDSKEYFSKHN
# B2: LSM12 (protein, UniProt Q3MHD2 2-195, looked up)
# Protein LSM12: AAPPGEYFSVGSQVSCRTCQEQRLQGEVVAFDYQSKMLALKCPSSSGKPNHADILLINLQYVSEVEIINDRTETPPPLASLNVSKLASKARTEKEEKLSQAYAISAGVSLEGQQLFQTIHKTIKDCKWQEKNIVVMEEVVITPPYQVENCKGKEGSALSHVRKIVEKHFRDVESQKILQRSQAQQPQKEAALSS
# B3: SRP14 (protein, UniProt P37108 2-136, looked up)
# Signal recognition particle …: VLLESEQFLTELTRLFQKCRTSGSVYITLKKYDGRTKPIPKKGTVEGFEPADNKCLLRATDGKKKISTVVSSKEVNKFQMAYSNLLRANMDGLKKRDKKNKTKKTKAAAAAAAAAPAAAATAPTTAATTAATAAQ
# B4: MCM3 (protein, UniProt P25205 2-808, looked up)
# DNA replication licensing …: AGTVVLDDVELREAQRDYLDFLDDEEDQGIYQSKVRELISDNQYRLIVNVNDLRRKNEKRANRLLNNAFEELVAFQRALKDFVASIDATYAKQYEEFYVGLEGSFGSKHVSPRTLTSCFLSCVVCVEGIVTKCSLVRPKVVRSVHYCPATKKTIERRYSDLTTLVAFPSSSVYPTKDEENNPLETEYGLSVYKDHQTITIQEMPEKAPAGQLPRSVDVILDDDLVDKAKPGDRVQVVGTYRCLPGKKGGYTSGTFRTVLIACNVKQMSKDAQPSFSAEDIAKIKKFSKTRSKDIFDQLAKSLAPSIHGHDYVKKAILCLLLGGVERDLENGSHIRGDINILLIGDPSVAKSQLLRYVLCTAPRAIPTTGRGSSGVGLTAAVTTDQETGERRLEAGAMVLADRGVVCIDEFDKMSDMDRTAIHEVMEQGRVTIAKAGIHARLNARCSVLAAANPVYGRYDQYKTPMENIGLQDSLLSRFDLLFIMLDQMDPEQDREISDHVLRMHRYRAPGEQDGDAMPLGSAVDILATDDPNFSQEDQQDTQIYEKHDNLLHGTKKKKEKMVSAAFMKKYIHVAKIIKPVLTQESATYIAEEYSRLRSQDSMSSDTARTSPVTARTLETLIRLATAHAKARMSKTVDLQDAEEAVELVQYAYFKKVLEKEKKRKKRSEDESETEDEEEKSQEDQEQKRKRRKTRQPDAKDGDSYDPYDFSDTEEEMPQVHTPKTADSQETKESQKVELSESRLKAFKVALLDVFREAHAQSIGMNRLTESINRDSEEPFSSVEIQAALSKMQDDNQVMVSEGIIFLI
# B5: SF3B3 (protein, UniProt Q15393 1-1217, looked up)
# Splicing factor 3B subunit 3: MFLYNLTLQRATGISFAIHGNFSGTKQQEIVVSRGKILELLRPDPNTGKVHTLLTVEVFGVIRSLMAFRLTGGTKDYIVVGSDSGRIVILEYQPSKNMFEKIHQETFGKSGCRRIVPGQFLAVDPKGRAVMISAIEKQKLVYILNRDAAARLTISSPLEAHKANTLVYHVVGVDVGFENPMFACLEMDYEEADNDPTGEAAANTQQTLTFYELDLGLNHVVRKYSEPLEEHGNFLITVPGGSDGPSGVLICSENYITYKNFGDQPDIRCPIPRRRNDLDDPERGMIFVCSATHKTKSMFFFLAQTEQGDIFKITLETDEDMVTEIRLKYFDTVPVAAAMCVLKTGFLFVASEFGNHYLYQIAHLGDDDEEPEFSSAMPLEEGDTFFFQPRPLKNLVLVDELDSLSPILFCQIADLANEDTPQLYVACGRGPRSSLRVLRHGLEVSEMAVSELPGNPNAVWTVRRHIEDEFDAYIIVSFVNATLVLSIGETVEEVTDSGFLGTTPTLSCSLLGDDALVQVYPDGIRHIRADKRVNEWKTPGKKTIVKCAVNQRQVVIALTGGELVYFEMDPSGQLNEYTERKEMSADVVCMSLANVPPGEQRSRFLAVGLVDNTVRIISLDPSDCLQPLSMQALPAQPESLCIVEMGGTEKQDELGERGSIGFLYLNIGLQNGVLLRTVLDPVTGDLSDTRTRYLGSRPVKLFRVRMQGQEAVLAMSSRSWLSYSYQSRFHLTPLSYETLEFASGFASEQCPEGIVAISTNTLRILALEKLGAVFNQVAFPLQYTPRKFVIHPESNNLIIIETDHNAYTEATKAQRKQQMAEEMVEAAGEDERELAAEMAAAFLNENLPESIFGAPKAGNGQWASVIRVMNPIQGNTLDLVQLEQNEAAFSVAVCRFSNTGEDWYVLVGVAKDLILNPRSVAGGFVYTYKLVNNGEKLEFLHKTPVEEVPAAIAPFQGRVLIGVGKLLRVYDLGKKKLLRKCENKHIANYISGIQTIGHRVIVSDVQESFIWVRYKRNENQLIIFADDTYPRWVTTASLLDYDTVAGADKFGNICVVRLPPNTNDEVDEDPTGNKALWDRGLLNGASQKAEVIMNYHVGETVLSLQKTTLIPGGSESLVYTTLSGGIGILVPFTSHEDHDFFQHVEMHLRSEHPPLCGRDHLSFRSYYFPVKNVIDGDLCEQFNSMEPNKQKNVSEELDRTPPEVSKKLEDIRTRYAF
# Molecular target: T1, G9a and GLP
# Assay: Triple SILAC pull-down after UNC0638 treatment of 293T cells, DMSO/UNC0638 ratio of protein captured by 3×MBT;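 further: mass spectrometry (Q-Exactive) SILAC quantitation, DMSO/UNC0638 ratio computed after subtracting 3×MBTD355N mutant pull-down background, only proteins with at least twofold 3×MBT over mutant signal considered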
# Assay type: cell-based
# Set-up: cells were treated for 24 hours with UNC0638 at 2.5 μM or DMSO vehicle control; endogenous in cells; host or cells: HEK 293T
# Conditions: SILAC ratio DMSO/UNC0638 of protein pulled down with 3xMBT; UNC0638 in heavy SILAC media
row,Relative to UNC0638 UNC Heavy [log base 2],Molecule
1,0.43,B1
2,0.03,B2
3,0.30,B3
4,0.28,B4
5,0.06,B5

# Same assay, conditions: SILAC ratio DMSO/UNC0638 of protein pulled down with 3xMBT; UNC0638 in light SILAC media
row,Relative to UNC0638 UNC Light [log base 2],Molecule
1,1.96,B1
2,0.34,B2
3,0.07,B3
4,0.09,B4
5,0.31,B5

# Same assay, conditions: average of UNC Light and UNC Heavy experiments
row,Relative to UNC0638 Average [log base 2],Molecule
1,1.19,B1
2,0.18,B2
3,0.19,B3
4,0.18,B4
5,0.18,B5

# Same assay, conditions: reduced association with 3xMBT after UNC0638 treatment
row,Candidate G9a/GLP target,Molecule
1,✓,B1

# Tested on: 3×MBT domain of L3MBTL1
# Assay: Triple SILAC pull-down, 3xMBT/3xMBTD355N ratio (cytoplasmic, nuclear and chromatin fractions of 293T cells);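 further: proteins quantified with MaxQuant, requiring at least two unique peptides and quantification in both label directions, normalized to the mean of proteins from a digested loading control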
# Assay type: binding, human
# Conditions: SILAC ratio, pull-down 3xMBT vs 3xMBTD355N; experiment with UNC0638 in heavy SILAC media
row,Molecule,3xMBT/D355N UNC Heavy [log base 2]
1,B1,2.19
2,B2,2.07
3,B3,2.23
4,B4,2.59
5,B5,2.48

# Same assay, conditions: SILAC ratio, pull-down 3xMBT vs 3xMBTD355N; experiment with UNC0638 in light SILAC media
row,Molecule,3xMBT/D355N UNC Light [log base 2]
1,B1,4.01
2,B2,3.81
3,B3,2.96
4,B4,2.49
5,B5,2.08
